Experimental data published in the Immune Epitope Database (IEDB).

What was measured:
Assay in all cases: IEDB peptide-MHC binding, purified MHC/competitive/fluorescence; filed as Kd, often an IC50 or EC50 that approximates it; ≥ and ≤ were set here for values at or beyond the usual limits of such assays
Conditions in all cases: source organism: Entamoeba histolytica HM-1:IMSS
HLA-A*02:03 = biological target: HLA-A*02:03
HLA-A*02:16 = biological target: HLA-A*02:16
HLA-A*24:03 = biological target: HLA-A*24:03
HLA-A*66:01 = biological target: HLA-A*66:01
HLA-B*07:02 = biological target: HLA-B*07:02
HLA-B*18:01 = biological target: HLA-B*18:01
HLA-B*27:05 = biological target: HLA-B*27:05
HLA-B*51:01 = biological target: HLA-B*51:01

Sequence: EVIRATYPS
- Kd (HLA-A*02:03): ≥ 20 µM
- Kd (HLA-A*02:16): ≥ 20 µM
- Kd (HLA-A*24:03): ≥ 20 µM
- Kd (HLA-A*66:01): 0.0244 µM
- Kd (HLA-B*07:02): ≥ 5 µM
- Kd (HLA-B*18:01): ≥ 20 µM
- Kd (HLA-B*27:05): ≥ 5 µM
- Kd (HLA-B*51:01): ≥ 20 µM
